The values that follow come from US20230257714A1, “METHODS AND COMPOSITIONS FOR GENERATING HUMAN INDUCED MESENCHYMAL STEM CELLS” (SmartCella Solutions AB, priority 2022, published 2023).

Assay [1] has as its system iMSCs. Kind of assay: quantitative real-time PCR of immunomodulatory marker genes in iMSCs treated with immune stimulators. It is filed as cell-based, human. The conditions noted are these: iMSCs 100k cells/sample; dsRNA 500 ng/sample or IFNr 10 ng/ml; 24 hours; particularly IDO1, TLR3 and HGF; control genes CD73, CD90, CD105 not upregulated; FIG. 5. The method, then:
In a first set of studies, iMSCs were treated with immune stimulators, either double-strand RNA (dsRNA) or recombinant human interferon gamma (IFNr)(R&D Systems, Cat. #35-IF-100). iMSCs (100k cells/sample) were cultured with dsRNA (500 ng/sample) or IFNr (10 ng/ml) for 24 hours. […] Immunostimulatory marker genes examined were: RIG1, TLR3, COX2, IDO1, HGF and TGF-beta. Control genes (for MSC surface markers) examined were: CD73, CD90 and CD105.
On the technique in general: Real-time PCR tracks product formation cycle by cycle.

For assay [2], the system named is iMSCs. Kind of assay: IL-10 secretion by iMSCs after IFNr treatment (ELISA). It is filed as cell-based, human. Particulars: IFNr 20 ng/mL or 50 ng/mL for three days; media supernatant; FIG. 7. The method, then: In a third set of experiments, the production of the anti-inflammatory factor IL-10 by the iMSCs was examined after treatment with IFNr. iMSCs (50k cells/well of a 24 well plate; approx. 25,000 cells/cm^2) were treated with low concentration (20 ng/mL) or high concentration (50 ng/mL) IFNr for three days to stimulate secretion of IL-10. The control group was the same culture conditions but without IFNr treatment. After three days, media supernatant was collected and the level of IL-10 secretion was quantified by standard ELISA analysis (human IL-10 Quantikine ELISA kit, R&D Systems, Cat. #D1000B).
Background: ELISA stands for enzyme-linked immunosorbent assay.

B1: IFNr: recombinant human interferon gamma (R&D Systems), immune stimulator (protein, UniProt P01579 24-161, looked up)
Interferon gamma: QDPYVKEAENLKKYFNAGHSDVADNGTLFLGILKNWKEESDRKIMQSQIVSFYFKLFKNFKDDQSIQKSVETIKEDMNVKFFNSNKKKRDDFEKLTNYSVTDLNVQRKAIHELIQVMAELSPAAKTGKRKRSQMLFRG
Take B1: in the assay on iMSCs [1], the “expression of genes associated with immunostimulation (RIG1, TLR3, COX2, IDO1, HGF, TGF-beta)” value is on record as “increased expression”. For the same molecule, the “secretion of IL-10 by iMSCs” value in the assay on iMSCs [2] is recorded as “dose-dependent”.
